First the molecules themselves.
B1: TACI WT 13 GS(G4S)2 (194) sc_Fc 218 (SEQ ID NO: 196) (Fc fusion)
chain: SLSCRKEQGKFYDHLLRDCISCASICGQHPKQCAYFCENKLRSGSGGGGSGGGGSEPKSSDKTHTCPPCPAPEAEGAPSVFLFPPKPKDTLMISRTPEVTCVVVDVSHEDPEVKFNWYVDGVEVHNAKTKPREEQYNSTYRVVSVLTVLHQDWLNGKEYKCKVSNKALPAPIEKTISKAKGQPREPQVYTLPPSRDELTKNQVSLTCLVKGFYPSDIAVEWESNGQPENNYKTTPPVLDSDGSFFLYSKLTVDKSRWQQGNVFSCSVMHEALHNHYTQKSLSLSPGGGGGSGGGGSGGGGSGGGGSGGGGSGGGGSGGGGSGGGGSGGGGSGGGGSGGGGSGGGGSEPKSSDKTHTCPPCPAPEAEGAPSVFLFPPKPKDTLMISRTPEVTCVVVDVSHEDPEVKFNWYVDGVEVHNAKTKPREEQYNSTYRVVSVLTVLHQDWLNGKEYKCKVSNKALPAPIEKTISKAKGQPREPQVYTLPPSRDELTKNQVSLTCLVKGFYPSDIAVEWESNGQPENNYKTTPPVLDSDGSFFLYSKLTVDKSRWQQGNVFSCSVMHEALHNHYTQKSLSLSPG
B2: TACI 26 GS(G4S)2 (194) scFc_218 (SEQ ID NO: 199) (Fc fusion)
chain: B1 chain with K10E, F11Y, Y35D
B3: TACI WT 1 GS(G4S)2 (194) scFc_218 (SEQ ID NO: 203) (Fc fusion)
chain: VAMRSCPEEQYWDPLLGTCMSCKTICNHQSQRTCAAFCRSLSCRKEQGKFYDHLLRDCISCASICGQHPKQCAYFCENKLRSGSGGGGSGGGGSEPKSSDKTHTCPPCPAPEAEGAPSVFLFPPKPKDTLMISRTPEVTCVVVDVSHEDPEVKFNWYVDGVEVHNAKTKPREEQYNSTYRVVSVLTVLHQDWLNGKEYKCKVSNKALPAPIEKTISKAKGQPREPQVYTLPPSRDELTKNQVSLTCLVKGFYPSDIAVEWESNGQPENNYKTTPPVLDSDGSFFLYSKLTVDKSRWQQGNVFSCSVMHEALHNHYTQKSLSLSPGGGGGSGGGGSGGGGSGGGGSGGGGSGGGGSGGGGSGGGGSGGGGSGGGGSGGGGSGGGGSEPKSSDKTHTCPPCPAPEAEGAPSVFLFPPKPKDTLMISRTPEVTCVVVDVSHEDPEVKFNWYVDGVEVHNAKTKPREEQYNSTYRVVSVLTVLHQDWLNGKEYKCKVSNKALPAPIEKTISKAKGQPREPQVYTLPPSRDELTKNQVSLTCLVKGFYPSDIAVEWESNGQPENNYKTTPPVLDSDGSFFLYSKLTVDKSRWQQGNVFSCSVMHEALHNHYTQKSLSLSPG
B4: TACI WT 131 GS(G4S)2 (194) scFc_218 (SEQ ID NO: 205) (Fc fusion)
chain: SRVDQEERFPQGLWTGVAMRSCPEEQYWDPLLGTCMSCKTICNHQSQRTCAAFCRSLSCRKEQGKFYDHLLRDCISCASICGQHPKQCAYFCENKLRSPVNLPPELGSGGGGSGGGGSEPKSSDKTHTCPPCPAPEAEGAPSVFLFPPKPKDTLMISRTPEVTCVVVDVSHEDPEVKFNWYVDGVEVHNAKTKPREEQYNSTYRVVSVLTVLHQDWLNGKEYKCKVSNKALPAPIEKTISKAKGQPREPQVYTLPPSRDELTKNQVSLTCLVKGFYPSDIAVEWESNGQPENNYKTTPPVLDSDGSFFLYSKLTVDKSRWQQGNVFSCSVMHEALHNHYTQKSLSLSPGGGGGSGGGGSGGGGSGGGGSGGGGSGGGGSGGGGSGGGGSGGGGSGGGGSGGGGSGGGGSEPKSSDKTHTCPPCPAPEAEGAPSVFLFPPKPKDTLMISRTPEVTCVVVDVSHEDPEVKFNWYVDGVEVHNAKTKPREEQYNSTYRVVSVLTVLHQDWLNGKEYKCKVSNKALPAPIEKTISKAKGQPREPQVYTLPPSRDELTKNQVSLTCLVKGFYPSDIAVEWESNGQPENNYKTTPPVLDSDGSFFLYSKLTVDKSRWQQGNVFSCSVMHEALHNHYTQKSLSLSPG

Residue numbers refer to the chain shown, from its start. Names and notes keep the numbering of the source.

In one test the target is recombinant human BAFF (BioLegend) (human, UniProt Q9Y275 134-285). The test can be described thus: cell-based or functional assay.
For the molecule B1, the “BAFF IC50 (pM)” value was found to be 5700 pM.
The same measure, in the same setting: then B2, with 8240 pM.
With B3, the “BAFF IC50 (pM)” value came to 4420 pM.
The same measure, in the same setting: under B4 stands 4580 pM.

A further test addresses BAFF 60-mer (an oligomer of twenty BAFF 3-mers). The test can be described thus: cell-based or functional assay.
As for B1, the “BAFF 60-mer IC50 (pM)” value came to 24100 pM.
On the same count and under the same terms, then B2, with 106000 pM.
B3: the “BAFF 60-mer IC50 (pM)” value is 15800 pM.
The same measure, in the same setting: under B4 stands 14300 pM.

The record behind these values is patent publication US20240279310A1 (ALPINE IMMUNE SCIENCES, published 2024).
